Laboratory results taken from publication PMC11573789.

B1: Upf1-SmBiT [S. cerevisiae] / Edc3 [S. cerevisiae] (parent)
chain 1: MVGSGSHTPYDISNSPSDVNVQPATQLNSTLVEDDDVDNQLFEEAQVTETGFRSPSASDNSCAYCGIDSAKCVIKCNSCKKWFCNTKNGTSSSHIVNHLVLSHHNVVSLHPDSDLGDTVLECYNCGRKNVFLLGFVSAKSEAVVVLLCRIPCAQTKNANWDTDQWQPLIEDRQLLSWVAEQPTEEEKLKARLITPSQISKLEAKWRSNKDATINDIDAPEEQEAIPPLLLRYQDAYEYQRSYGPLIKLEADYDKQLKESQALEHISVSWSLALNNRHLASFTLSTFESNELKVAIGDEMILWYSGMQHPDWEGRGYIVRLPNSFQDTFTLELKPSKTPPPTHLTTGFTAEFIWKGTSYDRMQDALKKFAIDKKSISGYLYYKILGHQVVDISFDVPLPKEFSIPNFAQLNSSQSNAVSHVLQRPLSLIQGPPGTGKTVTSATIVYHLSKIHKDRILVCAPSNVAVDHLAAKLRDLGLKVVRLTAKSREDVESSVSNLALHNLVGRGAKGELKNLLKLKDEVGELSASDTKRFVKLVRKTEAEILNKADVVCCTCVGAGDKRLDTKFRTVLIDESTQASEPECLIPIVKGAKQVILVGDHQQLGPVILERKAADAGLKQSLFERLISLGHVPIRLEVQYRMNPYLSEFPSNMFYEGSLQNGVTIEQRTVPNSKFPWPIRGIPMMFWANYGREEISANGTSFLNRIEAMNCERIITKLFRDGVKPEQIGVITPYEGQRAYILQYMQMNGSLDKDLYIKVEVASVDAFQGREKDYIILSCVRANEQQAIGFLRDPRRLNVGLTRAKYGLVILGNPRSLARNTLWNHLLIHFREKGCLVEGTLDNLQLCTVQLVRPQPRKTERPMNAQFNVESEMGDFPKFQDFDAQSMVSFSGQIGDFGNAFVDNTELSSYINNEYWNFENFKSAFSQKQNRNEIDDRNLYQEEASHLNSNFARELQREEQKHELSKDFSNLGI
chain 2: MSQFVGFGVQVELKDGKLIQGKIAKATSKGLTLNDVQFGDGGKSQAFKVRASRLKDLKVLTVASQSGKRKQQRQQQQQNDYNQNRGEHIDWQDDDVSKIKQQEDFDFQRNLGMFNKKDVFAQLKQNDDILPENRLQGHNRKQTQLQQNNYQNDELVIPDAKKDSWNKISSRNEQSTHQSQPQQDAQDDLVLEDDEHEYDVDDIDDPKYLPITQSLNITHLIHSATNSPSINDKTKGTVINDKDQVLAKLGQMIISQSRSNSTSLPAANKQTTIRSKNTKQNIPMATPVQLLEMESITSEFFSINSAGLLENFAVNASFFLKQKLGGRARLRLQNSNPEPLVVILASDSNRSGAKALALGRHLCQTGHIRVITLFTCSQNELQDSMVKKQTDIYKKCGGKIVNSVSSLESAMETLNSPVEIVIDAMQGYDCTLSDLAGTSEVIESRIKSMISWCNKQRGSTKVWSLDIPNGFDAGSGMPDIFFSDRIEATGIICSGWPLIAINNLIANLPSLEDAVLIDIGIPQGAYSQRTSLRKFQNCDLFVTDGSLLLDL
B2: Upf1-SmBiT [S. cerevisiae] / Pat1 [S. cerevisiae] (parent)
chain 1: B1 chain 1
chain 2: MSFFGLENSGNARDGPLDFEESYKGYGEHELEENDYLNDETFGDNVQVGTDFDFGNPHSSGSSGNAIGGNGVGATARSYVAATAEGISGPRTDGTAAAGPLDLKPMESLWSTAPPPAMAPSPQSTMAPAPAPQQMAPLQPILSMQDLERQQRQMQQQFMNFHAMGHPQGLPQGPPQQQFPMQPASGQPGPSQFAPPPPPPGVNVNMNQMPMGPVQVPVQASPSPIGMSNTPSPGPVVGATKMPLQSGRRSKRDLSPEEQRRLQIRHAKVEKILKYSGLMTPRDKDFITRYQLSQIVTEDPYNEDFYFQVYKIIQRGGITSESNKGLIARAYLEHSGHRLGGRYKRTDIALQRMQSQVEKAVTVAKERPSKLKDQQAAAGNSSQDNKQANTVLGKISSTLNSKNPRRQLQIPRQQPSDPDALKDVTDSLTNVDLASSGSSSTGSSAAAVASKQRRRSSYAFNNGNGATNLNKSGGKKFILELIETVYEEILDLEANLRNGQQTDSTAMWEALHIDDSSYDVNPFISMLSFDKGIKIMPRIFNFLDKQQKLKILQKIFNELSHLQIIILSSYKTTPKPTLTQLKKVDLFQMIILKIIVSFLSNNSNFIEIMGLLLQLIRNNNVSFLTTSKIGLNLITILISRAALIKQDSSRSNILSSPEISTWNEIYDKLFTSLESKIQLIFPPREYNDHIMRLQNDKFMDEAYIWQFLASLALSGKLNHQRIIIDEVRDEIFATINEAETLQKKEKELSVLPQRSQELDTELKSIIYNKEKLYQDLNLFLNVMGLVYRDGEISELK
B3: Upf1-SmBiT [S. cerevisiae] / Dbp2 [S. cerevisiae] (parent)
chain 1: B1 chain 1
chain 2: MTYGGRDQQYNKTNYKSRGGDFRGGRNSDRNSYNDRPQGGNYRGGFGGRSNYNQPQELIKPNWDEELPKLPTFEKNFYVEHESVRDRSDSEIAQFRKENEMTISGHDIPKPITTFDEAGFPDYVLNEVKAEGFDKPTGIQCQGWPMALSGRDMVGIAATGSGKTLSYCLPGIVHINAQPLLAPGDGPIVLVLAPTRELAVQIQTECSKFGHSSRIRNTCVYGGVPKSQQIRDLSRGSEIVIATPGRLIDMLEIGKTNLKRVTYLVLDEADRMLDMGFEPQIRKIVDQIRPDRQTLMWSATWPKEVKQLAADYLNDPIQVQVGSLELSASHNITQIVEVVSDFEKRDRLNKYLETASQDNEYKTLIFASTKRMCDDITKYLREDGWPALAIHGDKDQRERDWVLQEFRNGRSPIMVATDVAARGIDVKGINYVINYDMPGNIEDYVHRIGRTGRAGATGTAISFFTEQNKGLGAKLISIMREANQNIPPELLKYDRRSYGGGHPRYGGGRGGRGGYGRRGGYGGGRGGYGGNRQRDGGWGNRGRSNY

Variants of: B1
Assay: NanoBiT (ratiometric protein-fragment complementation assay in live yeast)
Settings: with Edc3 [S. cerevisiae]; four experimental replicates; read off a plot

Row | Variant | screen value
1 | chain 1 C122S | -2.8 log2

Variants of: B2
Assay: as above
Settings: with Pat1 [S. cerevisiae]; four experimental replicates; read off a plot

Row | Variant | screen value
2 | chain 1 C122S | -1.6 log2

Variants of: B3
Assay: as above
Settings: with Dbp2 [S. cerevisiae]; four experimental replicates; read off a plot

Row | Variant | screen value
3 | chain 1 C122S | 2 log2
